Experimental data reported in patent publication US20180057553A1, “CONJUGATE AND USE THEREOF” (The University of Tokyo, priority 2015, published 2018).
Where a chain is given by its changes, count along the chain named. Names may count otherwise.

B1: intelectin: a kind of lectin; amino acid sequence of human intelectin-1 is SEQ ID NO: 1; wild type forms a trimer (protein, listed as Homo sapiens)
chain: MNQLSFLLFLIATTRGWSTDEANTYFKEWTCSSSPSLPRSCKEIKDECPSAFDGLYFLRTENGVIYQTFCDMTSGGGGWTLVASVHENDMRGKCTVGDRWSSQQGSKADYPEGDGNWANYNTFGSAEAATSDDYKNPGYYDIQAKDLGIWHVPNKSPMQHWRNSSLLRYRTDTGFLQTLGHNLFGIYQKYPVKYGEGKCWTDNGPVIPVVYDFGDAQKTASYYSPYGQREFTAGFVQFRVFNNERAANALCAGMRVTGCNTEHHCIGGGGYFPEASPQQCGDFSGFDWSGYGTHVGYSSSREITEAAVLLFYR
modifications: human intelectin-1
notes: a kind of lectin; wild type forms a trimer
B2: C31, 48S mutant of human intelectin-1: cysteine residues at position 31 and 48 substituted with serine; produced as a monomer; SEQ ID NO: 9 (protein, listed as Homo sapiens)
chain: B1 chain with C31S, C48S
modifications: human intelectin-1 C31S, C48S variant
B3: mouse intelectin-1: produced as a monomer; 51 amino acid residues different from human intelectin-1; SEQ ID NO: 7 (protein, listed as Mus musculus)
chain: MTQLGFLLFIMVATRGCSAAEENLDTNRWGNSFFSSLPRSCKEIKQEHTKAQDGLYFLRTKNGVIYQTFCDMTTAGGGWTLVASVHENNMRGKCTVGDRWSSQQGNRADYPEGDGNWANYNTFGSAEAATSDDYKNPGYFDIQAENLGIWHVPNKSPLHNWRKSSLLRYRTFTGFLQHLGHNLFGLYKKYPVKYGEGKCWTDNGPALPVVYDFGDARKTASYYSPSGQREFTAGYVQFRVFNNERAASALCAGVRVTGCNTEHHCIGGGGFFPEGNPVQCGDFASFDWDGYGTHNGYSSSRKITEAAVLLFYR
modifications: mouse intelectin-1

Key:
[1] = Adsorption of intelectin in human serum to diol modified silica gel column (Example 14); assay type: binding
Method: 40 microliters of 50% fresh human serum diluted with 0.1% Tween 20-150 mM NaCl—50 mM phosphate buffer (pH 7.3) added with or not added with 10 mM EDTA was added to a gel filtration chromatography column (TSKgel G3000 SWXL Tosoh Corporation) utilizing diol-modified silica gel as the carrier, and gel filtration was performed using 0.1% Tween 20—150 mM NaCl—50 mM phosphate buffer (pH 7.3) as solvent. Subsequently, the intelectin concentration in the elution fraction was measured using ELISA.

[2] = Binding of intelectin to beads having a diol group (SDS-PAGE, Examples 1 and 10); settings: 18 hours at 25 deg C; eluted with 15% glycerol; compared with polystyrene or hydroxy beads
Method: Beads having a diol group on the surface and beads not having a diol group on the surface were prepared. Beads obtained by conjugating 3-amino-1-propanediol bound to the surface of polystyrene beads via an amino group (diol beads), and beads obtained by alkaline hydrolyzing the epoxy group of Sepharose beads with 1,4-bis(2,3-epoxypropyl)butane introduced (epoxy-activated Sepharose 6B (GE Healthcare Biosciences)) (diol Sepharose beads) were used as the beads having a diol group on the surface. Polystyrene beads and beads obtained by conjugating 3-amino-1-propanol to polystyrene beads (hydroxy beads) were used as the beads not having a diol group on the surface.
Each kind of beads were added to 500 microliters of a medium containing intelectin or a medium not containing intelectin, and were stirred for 18 hours at 25 deg C. Recombinant human intelectin-1 was used as intelectin. Subsequently, the beads were collected by centrifugation and washed once with buffer, and the samples was eluted with buffer containing 15% glycerol. Samples were separated by SDS polyacrylamide gel electrophoresis (SDS-PAGE), and proteins were stained using Coomassie Brilliant Blue.
Beads having a diol group on the surface and beads not having a diol group on the surface were prepared. Diol beads, diol Sepharose brads, and hydroxy beads, that were used in Example 1, were used as the beads.
First, beads were added to 5 mL of a medium containing recombinant mouse intelectin-1 or 1 mL of a medium containing C31, 48S mutant of human intelectin-1, and the samples were stirred for 18 hours at 25 deg C.
Subsequently, the beads were collected by centrifugation and washed once with buffer, and the samples were eluted with buffer containing 15% glycerol. The samples were then separated by SDS-polyacrylamide gel electrophoresis (SDS-PAGE), and proteins were stained with Coomassie Brilliant Blue.

Molecule	binding of serum intelectin to the column ([1]; human serum added with 10 mM EDTA)	binding of serum intelectin to the column ([1]; human serum not added with EDTA)	binding to beads having a diol group (SDS-PAGE) [2]
B1	did not bind to the column	adsorbed to the column	selectively bind to diol beads and diol Sepharose beads
B2			specifically bind to diol beads and diol Sepharose beads
B3			specifically bind to diol beads and diol Sepharose beads
